Measurements: patent US20240035010, “COMPOSITIONS COMPRISING A VARIANT POLYPEPTIDE AND USES THEREOF” (Arbor Biotechnologies, Inc., published 2024)

Key:
[1] = target: T1, variant nuclease L38G combination (P14R, D32R, I61R, E311R, L38G); test: cell_activity; PAM 5'-TTTA-3'; details: tags: pcDNA3.1 expression
T1 chain: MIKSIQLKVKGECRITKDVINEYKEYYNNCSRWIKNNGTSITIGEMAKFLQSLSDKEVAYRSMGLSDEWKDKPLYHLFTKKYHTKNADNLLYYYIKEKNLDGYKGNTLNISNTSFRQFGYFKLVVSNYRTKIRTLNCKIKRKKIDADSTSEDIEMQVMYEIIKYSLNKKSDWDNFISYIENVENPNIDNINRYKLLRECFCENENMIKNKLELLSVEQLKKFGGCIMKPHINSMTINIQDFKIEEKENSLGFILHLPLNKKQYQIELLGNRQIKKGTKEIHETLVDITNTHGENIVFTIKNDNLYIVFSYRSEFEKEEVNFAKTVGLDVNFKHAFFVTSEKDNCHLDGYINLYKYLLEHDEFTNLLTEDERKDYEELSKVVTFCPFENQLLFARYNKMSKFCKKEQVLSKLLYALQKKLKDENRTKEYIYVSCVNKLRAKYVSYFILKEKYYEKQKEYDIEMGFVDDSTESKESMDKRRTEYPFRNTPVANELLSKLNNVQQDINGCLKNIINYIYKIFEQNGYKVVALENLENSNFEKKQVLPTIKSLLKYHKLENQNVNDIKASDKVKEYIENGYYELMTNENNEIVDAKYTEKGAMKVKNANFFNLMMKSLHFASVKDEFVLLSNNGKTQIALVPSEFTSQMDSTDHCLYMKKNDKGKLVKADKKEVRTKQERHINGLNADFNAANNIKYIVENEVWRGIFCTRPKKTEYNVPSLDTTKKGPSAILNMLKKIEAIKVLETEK
Outline: (§1)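 HEK293T cells were lipofected with nuclease plasmid (pcDNA3.1 backbone) plus RNA guide plasmid, with guide omitted in negative controls. After ~72 h cells were lysed in QuickExtract and % indels were derived from NGS reads, averaged over two bioreplicates and two technical replicates.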

[2] = target: T2, variant nuclease E736G combination (P14R, D32R, I61R, E311R, E736G); test: cell_activity; PAM 5'-TTTA-3'; details: tags: pcDNA3.1 expression
T2 chain: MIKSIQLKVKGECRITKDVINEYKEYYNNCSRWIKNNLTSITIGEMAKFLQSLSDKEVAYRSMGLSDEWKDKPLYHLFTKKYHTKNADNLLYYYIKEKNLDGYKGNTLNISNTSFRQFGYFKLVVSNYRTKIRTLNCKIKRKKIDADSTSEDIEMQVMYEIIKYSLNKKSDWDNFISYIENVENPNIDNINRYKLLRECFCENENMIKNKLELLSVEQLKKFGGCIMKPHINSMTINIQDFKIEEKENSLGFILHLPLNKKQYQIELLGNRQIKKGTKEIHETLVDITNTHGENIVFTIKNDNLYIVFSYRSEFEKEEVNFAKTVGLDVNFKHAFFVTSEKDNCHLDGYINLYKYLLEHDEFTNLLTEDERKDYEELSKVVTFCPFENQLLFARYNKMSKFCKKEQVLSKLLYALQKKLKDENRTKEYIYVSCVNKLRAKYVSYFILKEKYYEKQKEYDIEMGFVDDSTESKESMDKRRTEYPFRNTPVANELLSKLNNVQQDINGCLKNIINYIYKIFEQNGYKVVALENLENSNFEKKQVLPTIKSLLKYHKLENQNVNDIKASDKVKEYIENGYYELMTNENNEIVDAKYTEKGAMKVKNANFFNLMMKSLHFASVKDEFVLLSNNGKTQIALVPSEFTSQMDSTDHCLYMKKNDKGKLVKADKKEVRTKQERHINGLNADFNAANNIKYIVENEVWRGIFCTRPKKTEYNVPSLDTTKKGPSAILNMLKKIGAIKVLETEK
Outline: as §1

B1: VEGFA crRNA ; VEGFA target (ssRNA ; dsDNA)
RNA: CUUGUUGUAUAUGUCCUUUUAUAGGUAUUAAACAACUCCAGACCACCAAUGGGCAC
DNA 1: TCCAGACCACCAATGGGCAC
DNA 2: GTGCCCATTGGTGGTCTGGA
indel activity [1]: 0.22 fold of WT
indel activity [2]: 2.65 fold of WT
